Source: paper PMC8464079
Changes are numbered by the printed parent chain.

What was measured:
Assay in all cases: fluorescence polarization
MUT-4C = target: T1, MUT-4C (Caenorhabditis elegans, UniProt Q09487 172-535, N318C;H319Y;Q322R)
T1 sequence: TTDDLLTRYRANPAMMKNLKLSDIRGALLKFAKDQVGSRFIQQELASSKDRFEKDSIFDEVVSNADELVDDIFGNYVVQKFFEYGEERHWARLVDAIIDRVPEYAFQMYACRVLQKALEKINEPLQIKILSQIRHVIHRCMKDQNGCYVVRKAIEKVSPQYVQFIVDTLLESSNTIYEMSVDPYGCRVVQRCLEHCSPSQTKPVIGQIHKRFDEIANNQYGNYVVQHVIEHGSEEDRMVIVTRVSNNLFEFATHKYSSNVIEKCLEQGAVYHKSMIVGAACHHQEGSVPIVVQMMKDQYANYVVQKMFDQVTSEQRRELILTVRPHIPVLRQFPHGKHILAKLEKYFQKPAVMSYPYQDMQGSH

MUT-#9 (Q476A) = target: T2, MUT-#9 (Q476A) (Caenorhabditis elegans, UniProt Q09487 172-535, Q476A)
T2 sequence: T1 sequence with C147N, Y148H, R151Q, Q305A

MUT-#14 (Q476A/K513A) = target: T3, MUT-#14 (Q476A/K513A) (Caenorhabditis elegans, UniProt Q09487 172-535, Q476A;K513A)
T3 sequence: T1 sequence with C147N, Y148H, R151Q, Q305A, K342A

MUT-4G = target: T4, MUT-4G (Caenorhabditis elegans, UniProt Q09487 172-535, N318S;H319N;Q322E)
T4 sequence: T1 sequence with C147S, Y148N, R151E

MUT-#11 (K513A) = target: T5, MUT-#11 (K513A) (Caenorhabditis elegans, UniProt Q09487 172-535, K513A)
T5 sequence: T1 sequence with C147N, Y148H, R151Q, K342A

PUF-8 WT (FP) = target: T6, PUF-8 WT (FP) (Caenorhabditis elegans, UniProt Q09487 172-535)
T6 sequence: T1 sequence with C147N, Y148H, R151Q

B1: PBE-5A FAM (ssRNA)
RNA: UGUAAAUA
Kd (MUT-4C): 16.3 ± 4.64 nM | Kd (MUT-#9 (Q476A)): 63.5 ± 11.1 nM | Kd (MUT-#14 (Q476A/K513A)): 210 ± 27.4 nM | Kd (MUT-4G): 239 ± 48 nM | Kd (MUT-#11 (K513A)): 133 ± 29.8 nM | Kd (PUF-8 WT (FP)): 2.49 ± 1.5 nM
